Reference: PMC11261718

Target: West Nile virus NS5 protein, wild-type, with a C-terminal Flag tag (UniProt P06935)
Experiment: co-immunoprecipitation (NS5-Flag IP, western blot for NS3-myc)
Conditions: parent: 100

Substance: West Nile virus NS3 protein, wild-type, with a C-terminal myc tag (from UniProt P06935) R186A
- percent of parent (IP with RNase): 69%
- percent of parent (IP without RNase): 107%
